# Experimental data from paper PMC8492665, “An apple (Malus domestica) AP2/ERF transcription factor modulates carotenoid accumulation”.
# B1: MdPSY2-1 promoter hot probe (dsDNA)
# DNA 1: CTTTTCTTCTCTCAGTACATGCACCGACGTCGATATTAACCTTGGAACCT
# DNA 2: AGGTTCCAAGGTTAATATCGACGTCGGTGCATGTACTGAGAGAAGAAAAG
# Molecular target: MdAP2-34 (Malus domestica, UniProt A0A678SKA5 1-366)
# Assay: EMSA; LightShift Chemiluminescent EMSA Kit (Thermo Fisher); buffer, salt, pH and temperature not stated
# Conditions: protein: recombinant; tags: GST (pGEX-4T-1, N-terminal); label: 5' biotin; blunt
# MdAP2-34, sequence (A0A678SKA5 entry or part of it): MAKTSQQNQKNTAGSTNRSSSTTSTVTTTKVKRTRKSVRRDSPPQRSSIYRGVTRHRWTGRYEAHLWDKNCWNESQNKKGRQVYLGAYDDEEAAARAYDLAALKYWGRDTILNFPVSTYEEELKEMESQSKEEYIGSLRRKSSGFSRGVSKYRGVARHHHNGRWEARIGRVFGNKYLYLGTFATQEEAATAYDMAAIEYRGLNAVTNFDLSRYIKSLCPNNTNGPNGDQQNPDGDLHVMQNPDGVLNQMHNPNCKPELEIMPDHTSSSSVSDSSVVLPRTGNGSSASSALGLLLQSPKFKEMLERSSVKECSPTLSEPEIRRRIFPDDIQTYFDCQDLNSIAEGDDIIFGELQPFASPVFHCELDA
binder,measurement,value
B1,binding result,binds
